Assay [1] deals with T1, human ASIC1a (hASIC1a-eYFP) (Homo sapiens, UniProt P78348).
T1 construct: expressed in transfected cells; host or cells: CHO-K1 (transient)
T1 sequence (P78348 1-528): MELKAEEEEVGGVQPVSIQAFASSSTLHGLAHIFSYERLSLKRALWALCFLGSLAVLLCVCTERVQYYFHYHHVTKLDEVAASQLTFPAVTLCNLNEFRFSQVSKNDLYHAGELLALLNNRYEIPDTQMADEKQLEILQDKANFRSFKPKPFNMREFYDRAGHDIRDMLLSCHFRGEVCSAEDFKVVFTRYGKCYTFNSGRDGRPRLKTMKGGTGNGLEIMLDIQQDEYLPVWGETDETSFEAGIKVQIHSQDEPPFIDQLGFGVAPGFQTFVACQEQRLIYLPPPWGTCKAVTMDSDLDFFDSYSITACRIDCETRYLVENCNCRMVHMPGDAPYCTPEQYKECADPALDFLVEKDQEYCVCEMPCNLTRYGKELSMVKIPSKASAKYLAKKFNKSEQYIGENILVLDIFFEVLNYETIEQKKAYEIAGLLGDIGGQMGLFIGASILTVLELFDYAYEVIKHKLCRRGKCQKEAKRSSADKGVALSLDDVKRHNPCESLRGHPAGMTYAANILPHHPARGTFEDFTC
Kind of assay: FACS-based binding assay, transiently transfected CHO-K1 cells (species selectivity). Particulars: double positive population. How it is done: (§1) To investigate the species selectivity of ASC06-IgG1 affinity-matured antibodies, plasmids encoding fusion proteins of eYFP with […] homologs of ASIC1a were constructed. These plasmids included those encoding human ASIC1a (hASIC1a-eYFP), mouse ASIC1a (mASIC1a-eYFP), and rat ASIC1a (rASIC1a-eYFP). CHO-K1 cells were transiently transfected with the ASIC1a-eYFP plasmids, and a fluorescence activated cell sorting (FACS)-based binding assay was carried out to determine binding to the homologs or isoforms of ASIC1a expressed on the cell surface. An isotype control was used as a negative control for binding (NC). ASC06-IgG1 was used as a positive control. Summarily, the CHO-K1 cells expressing the ASIC1a-eYFP (green) homologs were stained with the indicated antibody (red) and subjected to FACS.

Assay [2] deals with T2, rat ASIC1a (rASIC1a-eYFP) (Rattus norvegicus, UniProt P55926).
T2 construct: expressed in transfected cells; host or cells: CHO-K1 (transient)
T2 sequence (P55926 1-526): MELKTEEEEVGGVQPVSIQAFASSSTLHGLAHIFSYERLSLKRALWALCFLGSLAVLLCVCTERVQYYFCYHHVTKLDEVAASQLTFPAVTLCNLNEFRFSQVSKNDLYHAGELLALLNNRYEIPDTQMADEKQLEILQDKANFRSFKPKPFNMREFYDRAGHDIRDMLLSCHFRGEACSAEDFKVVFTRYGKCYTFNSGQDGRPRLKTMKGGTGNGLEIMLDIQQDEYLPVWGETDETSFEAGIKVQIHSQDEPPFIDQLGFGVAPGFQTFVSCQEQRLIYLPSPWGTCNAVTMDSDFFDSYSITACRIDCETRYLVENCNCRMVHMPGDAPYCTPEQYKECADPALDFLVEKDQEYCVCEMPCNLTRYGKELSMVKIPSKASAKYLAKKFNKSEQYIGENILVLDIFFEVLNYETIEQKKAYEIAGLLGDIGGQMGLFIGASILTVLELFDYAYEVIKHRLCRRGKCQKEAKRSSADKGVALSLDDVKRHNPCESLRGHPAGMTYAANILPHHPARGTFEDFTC
Described as above. The settings on record: double positive population. How it is done:
as §1

The target of assay [3] is T3, hASIC1a on CHO-K1 cells stably expressing hASIC1a (human, UniProt P78348 1-528).
T3 sequence (looked up): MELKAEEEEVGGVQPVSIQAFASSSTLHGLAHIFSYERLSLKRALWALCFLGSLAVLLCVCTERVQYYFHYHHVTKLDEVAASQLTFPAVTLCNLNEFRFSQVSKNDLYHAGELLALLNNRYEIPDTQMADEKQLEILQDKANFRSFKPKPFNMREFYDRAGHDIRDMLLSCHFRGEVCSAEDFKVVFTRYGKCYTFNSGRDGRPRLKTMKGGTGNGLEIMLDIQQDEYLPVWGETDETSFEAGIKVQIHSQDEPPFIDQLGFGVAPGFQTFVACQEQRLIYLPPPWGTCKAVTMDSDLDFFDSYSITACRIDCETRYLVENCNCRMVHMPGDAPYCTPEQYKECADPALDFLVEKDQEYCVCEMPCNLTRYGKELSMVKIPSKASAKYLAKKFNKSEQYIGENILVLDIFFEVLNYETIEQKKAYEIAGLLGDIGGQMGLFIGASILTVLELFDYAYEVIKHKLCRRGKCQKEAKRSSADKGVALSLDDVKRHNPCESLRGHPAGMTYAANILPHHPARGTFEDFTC
Kind of assay: cell-based or functional assay.

Assay [4] addresses T4, rat ASIC1a-eYFP (rASIC1a-eYFP) on transiently transfected CHO-K1 cells (rat, UniProt P55926 1-526).
T4 construct: whole, on cells; not shown: eYFP fusion partner
T4 sequence (looked up): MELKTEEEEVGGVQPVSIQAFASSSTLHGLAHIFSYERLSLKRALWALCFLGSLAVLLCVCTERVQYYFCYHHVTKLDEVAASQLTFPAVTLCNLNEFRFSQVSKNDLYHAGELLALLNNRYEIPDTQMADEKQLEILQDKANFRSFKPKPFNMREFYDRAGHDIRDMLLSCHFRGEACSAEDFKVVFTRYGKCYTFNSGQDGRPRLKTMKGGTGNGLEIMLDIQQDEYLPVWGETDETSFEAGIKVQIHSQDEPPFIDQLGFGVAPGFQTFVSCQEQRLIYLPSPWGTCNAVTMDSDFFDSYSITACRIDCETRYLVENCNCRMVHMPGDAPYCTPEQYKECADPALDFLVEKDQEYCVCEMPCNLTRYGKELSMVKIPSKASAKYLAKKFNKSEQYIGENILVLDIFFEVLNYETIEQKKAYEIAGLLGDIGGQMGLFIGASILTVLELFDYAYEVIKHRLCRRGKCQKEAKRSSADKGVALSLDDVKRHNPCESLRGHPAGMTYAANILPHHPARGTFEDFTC
Kind of assay: FACS on transiently transfected CHO-K1 cells. How it is done:
as §1
To examine the ASIC isotype selectivity of ASC06-IgG1 affinity-matured antibodies, plasmids encoding fusion proteins of eYFP with isoforms of […] were constructed. These plasmids included those encoding human ASIC1b (hASIC1b-eYFP), human ASIC2a (hASIC2a-eYFP), and human ASIC3a (hASIC3a-eYFP). CHO-K1 cells were transiently transfected with these plasmids and used in a FACS-based binding assay disclosed herein. Binding of ASC06-IgG1 to CHO-K1 cells expressing human ASIC1a-eYFP (hASIC1a-eYFP) was used as a positive control (data not shown and FIG. 2), and an isotype control was used as a negative control for binding (NC).

In assay [5] the target is T5, recombinant extracellular domain of hASIC1a (hASIC1a-ECD) (human, UniProt P78348 67-427, limits assumed).
T5 construct: extracellular domain; ASIC1a is one splice isoform of it; also called trimeric ectodomain of hASIC1a
T5 sequence (looked up): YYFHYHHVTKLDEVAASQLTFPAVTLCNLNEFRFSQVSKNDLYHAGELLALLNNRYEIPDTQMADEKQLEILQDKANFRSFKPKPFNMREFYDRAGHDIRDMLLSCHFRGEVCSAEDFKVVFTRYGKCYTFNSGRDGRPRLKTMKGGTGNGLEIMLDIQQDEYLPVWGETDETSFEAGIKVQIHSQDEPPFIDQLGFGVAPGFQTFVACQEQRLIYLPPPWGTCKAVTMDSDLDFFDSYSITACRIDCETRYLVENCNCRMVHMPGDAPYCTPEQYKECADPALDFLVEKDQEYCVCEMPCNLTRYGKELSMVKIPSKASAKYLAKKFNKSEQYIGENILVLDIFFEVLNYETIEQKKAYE
The experiment in a line: SPR, Biacore T200, hASIC1a-ECD immobilized, IgG1 as analyte. As for the experimental part: Binding affinities of four affinity-matured antibodies in IgG1 format (ASC06-01-IgG1 through ASC06-04-IgG1) to the recombinant extracellular domain of hASIC1a(hASIC1a-ECD) were measured using the Biacore T200™ (GE Healthcare). The ASC06-IgG1 antibody was used as a positive control. All manipulations were followed by the user guide of manufacturer. Briefly, was hASIC1a was immobilized, and serial dilutions of the indicated antibodies were added as analytes. The analysis of the results were processed in BIA Evaluation Software™.

Assay [6] addresses T6, hASIC1a-mCherry fusion on a stable cell line (human, UniProt P78348 1-528).
T6 sequence (looked up): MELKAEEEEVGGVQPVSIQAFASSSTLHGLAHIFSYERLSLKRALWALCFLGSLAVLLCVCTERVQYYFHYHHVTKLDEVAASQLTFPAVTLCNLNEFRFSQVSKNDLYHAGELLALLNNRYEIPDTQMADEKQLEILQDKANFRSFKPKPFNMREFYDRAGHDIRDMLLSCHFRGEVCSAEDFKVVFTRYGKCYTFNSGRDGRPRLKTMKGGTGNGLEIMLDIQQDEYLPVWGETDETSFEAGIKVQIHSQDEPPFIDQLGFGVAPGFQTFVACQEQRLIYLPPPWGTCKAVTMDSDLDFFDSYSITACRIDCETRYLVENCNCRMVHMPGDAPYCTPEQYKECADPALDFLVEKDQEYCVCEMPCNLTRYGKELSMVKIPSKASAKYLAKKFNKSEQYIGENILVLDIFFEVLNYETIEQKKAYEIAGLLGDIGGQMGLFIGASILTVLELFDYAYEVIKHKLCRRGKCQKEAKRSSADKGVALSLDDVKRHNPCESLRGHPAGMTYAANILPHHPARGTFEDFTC
Kind of assay: cell-based or functional assay.

Four molecules from US20230174642A1, “AFFINITY-MATURATED ANTI-ASIC1a ANTIBODIES” (SHANGHAITECH UNIVERSITY, priority 2019, published 2023) can be followed below.

B1: ASC06-04-IgG1: affinity-matured ASC06 derivative, VH-CDR3 DSFYGRAKGV (SEQ ID NO: 17) (antibody, V domains shown)
VH: QVQLQQSGGGLVQPGGSLRLSCAASGFTFSSYAMSWVRQAPGKGLEWVSAISGSGGSTYYADSVKGRFTISRDNSKNTLYLQMNSLRAEDTAVYYCAKDSFYGRAKGVWGQGTLVTVSS
VL: QSALTQPASVSGSPGQSITISCTGTSSDVGAYNYVSWYQQQPGKAPKLMIYGVSNRPSGVSNRFSGSKSGNAASLTISGLQAEDEADYYCSSYTSSSTYVFGTGTKLTVLG
In the case of B1, the “binding to cells expressing hASIC1a-eYFP” value in assay [1] is “bound”. For the same molecule, the “binding to cells expressing rASIC1a-eYFP” value in assay [2] is reported as “bound”.

B2: ASC06-03-IgG1: affinity-matured ASC06 derivative, VH-CDR3 DSFYGRAKGS (SEQ ID NO: 15) (antibody, V domains shown)
VH: QVQLQQSGGGLVQPGGSLRLSCAASGFTFSSYAMSWVRQAPGKGLEWVSAISGSGGSTYYADSVKGRFTISRDNSKNTLYLQMNSLRAEDTAVYYCAKDSFYGRAKGSWGQGTLVTVSS
VL: QSALTQPASVSGSPGQSITISCTGTSSDVGAYNYVSWYQQQPGKAPKLMIYGVSNRPSGVSNRFSGSKSGNAASLTISGLQAEDEADYYCSSYTSSSTYVFGTGTKLTVLG
B2: the “binding to cells expressing hASIC1a-eYFP” value in assay [1] was “bound”. Besides, in assay [2], the “binding to cells expressing rASIC1a-eYFP” value was “bound”.

B3: ASC06-04-IgG1 (antibody, V domains shown)
VH: QVQLQQSGGGLVQPGGSLRLSCAASGFTFSSYAMSWVRQAPGKGLEWVSAISGSGGSTYYADSVKGRFTISRDNSKNTLYLQMNSLRAEDTAVYYCAKDSFYGRAKGVWGQGTLVTVSS
VL: QSALTQPASVSGSPGQSITISCTGTSSDVGAYNYVSWYQQQPGKAPKLMIYGVSNRPSGVSNRFSGSKSGNAASLTISGLQAEDEADYYCSSYTSSSTYVFGTGTKLTVLG
notes: Full length IgG1
As to B3, the “IC50 for the inhibition of ASIC1a currents, FMP assay” value in assay [3] was 51.8 nM. Moreover, the binding result in assay [4] was “binds”. Besides, in assay [5], the Kd (commonly the free concentration of one partner at which half of the binding sites on the other are occupied at equilibrium, for simple one-to-one binding) was 0.26 nM; the koff (usually the first-order rate constant of dissociation) came to 0.000163 s⁻¹; the on-rate constant (kon) (usually the rate constant with which the complex forms) was determined as 620000 M⁻¹ s⁻¹.

B4: ASC06-01-IgG1 (antibody, V domains shown)
VH: QVQLQQSGGGLVQPGGSLRLSCAASGFTFSSYAMSWVRQAPGKGLEWVSAISGSGGSTYYADSVKGRFTISRDNSKNTLYLQMNSLRAEDTAVYYCAKDSYFGYSKGDWGQGTLVTVSS
VL: QSALTQPASVSGSPGQSITISCTGTSSDVGAYNYVSWYQQQPGKAPKLMIYGVSNRPSGVSNRFSGSKSGNAASLTISGLQAEDEADYYCSSYTSSSTYVFGTGTKLTVLG
notes: Full length IgG1
B4: the “IC50 for the inhibition of ASIC1a currents, FMP assay” value in assay [3] worked out at 74 nM. In addition, in assay [6], the “IC50 for the inhibition of acid induced ASIC1a-mediated calcium influx, FLIPR-based assay” value was found to be 2.24 nM. In addition, the binding result in assay [4] is reported as “binds”. In assay [5], the Kd was found to be 0.1 nM, the off-rate (koff) was found to be 0.000997 s⁻¹ and the kon was 9.7e+06 M⁻¹ s⁻¹.
